To fix the notation:
B1: full-length mouse LIGHT, on cells (mLIGHT-IRES-EGFP) [mouse] / full-length WT mouse HVEM-mCherry, on cells [mouse] (parent complex)
chain 1: MESVVQPSVFVVDGQTDIPFRRLEQNHRRRRCGTVQVSLALVLLLGAGLATQGWFLLRLHQRLGDIVAHLPDGGKGSWEKLIQDQRSHQANPAAHLTGANASLIGIGGPLLWETRLGLAFLRGLTYHDGALVTMEPGYYYVYSKVQLSGVGCPQGLANGLPITHGLYKRTSRYPKELELLVSRRSPCGRANSSRVWWDSSFLGGVVHLEAGEEVVVRVPGNRLVRPRDGTRSYFGAFMV
chain 2: QPSCRQEEFLVGDECCPMCNPGYHVKQVCSEHTGTVCAPCPPQTYTAHANGLSKCLPCGVCDPDMGLLTWQECSSWKDTVCRCIPGYFCENQDGSHCSTCLQHTTCPPGQRVEKRGTHDQDTVCADCLTGTFSLGGTQEECLPWTNCSAFQQEVRRGTNSTDTTCSSQVVYYVVSILLPLVIVGAGIAGFLICTRRHLHTSSVAKELEPFQEQQENTIRFPVTEVGFAETEEETASN

In the test the parent is B1. In words: flow cytometry, cell–cell method. In general terms: In flow cytometry, cells or beads pass a laser one at a time.
For the variant chain 2 QPSCRQEEFLVGDECCPMCNPGYHVKQVCSEHTGTVCAPCPPQTYTAHANGLSKCLPCGVCDPDMGLLTWQECSSWDDTVCRCIPGYFCENQDGSHCSTCLQHTTCPPGQRVEKRGTHDQDTVCADCLTGTFSLGGTQEECLPWTNCSAFQQEVRRGTNSTDTTCSSQVVYYVVSILLPLVIVGAGIAGFLICTRRHLHTSSVAKELEPFQEQQENTIRFPVTEVGFAETEEETASN [chain 2 K77D], the ratio to parent was found to be 1.4.
To chain 2 QPSCRQEEFLVGDECCPMCNPGYHVKQVCSEHTGTVCAPCPPQTYTAHANGLSKCLPCGVCDPDMGLLTWQECSSWADTVCRCIPGYFCENQDGSHCSTCLQHTTCPPGQRVEKRGTHDQDTVCADCLTGTFSLGGTQEECLPWTNCSAFQQEVRRGTNSTDTTCSSQVVYYVVSILLPLVIVGAGIAGFLICTRRHLHTSSVAKELEPFQEQQENTIRFPVTEVGFAETEEETASN [chain 2 K77A] belongs 1.8; to chain 2 QPSCRQEEFLVGDECCPMCNPGYHVKQVCSEHTGTVCAPCPPQTYTAHAAGLSKCLPCGVCDPDMGLLTWQECSSWKDTVCRCIPGYFCENQDGSHCSTCLQHTTCPPGQRVEKRGTHDQDTVCADCLTGTFSLGGTQEECLPWTNCSAFQQEVRRGTNSTDTTCSSQVVYYVVSILLPLVIVGAGIAGFLICTRRHLHTSSVAKELEPFQEQQENTIRFPVTEVGFAETEEETASN [chain 2 N50A], 0.5; to chain 2 QPSCRQEEFLVGDECCPMCNPGYHVKQVCAEHTGTVCAPCPPQTYTAHANGLSKCLPCGVCDPDMGLLTWQECSSWKDTVCRCIPGYFCENQDGSHCSTCLQHTTCPPGQRVEKRGTHDQDTVCADCLTGTFSLGGTQEECLPWTNCSAFQQEVRRGTNSTDTTCSSQVVYYVVSILLPLVIVGAGIAGFLICTRRHLHTSSVAKELEPFQEQQENTIRFPVTEVGFAETEEETASN [chain 2 S30A], 1.
To chain 2 QPSCRQEEFLVGDECCPMCNPGYHVKQVCSEHTGTVCDPCPPQTYTAHANGLSKCLPCGVCDPDMGLLTWQECSSWKDTVCRCIPGYFCENQDGSHCSTCLQHTTCPPGQRVEKRGTHDQDTVCADCLTGTFSLGGTQEECLPWTNCSAFQQEVRRGTNSTDTTCSSQVVYYVVSILLPLVIVGAGIAGFLICTRRHLHTSSVAKELEPFQEQQENTIRFPVTEVGFAETEEETASN [chain 2 A38D] belongs 1.1; to chain 2 QPSCRQEEFLVGDECCPMCNPGYHVKQVCSEHTGTVCWPCPPQTYTAHANGLSKCLPCGVCDPDMGLLTWQECSSWKDTVCRCIPGYFCENQDGSHCSTCLQHTTCPPGQRVEKRGTHDQDTVCADCLTGTFSLGGTQEECLPWTNCSAFQQEVRRGTNSTDTTCSSQVVYYVVSILLPLVIVGAGIAGFLICTRRHLHTSSVAKELEPFQEQQENTIRFPVTEVGFAETEEETASN [chain 2 A38W], 0.9.
Consider chain 2 QPSCRQEEFLVGDECCPMCNPGYHVKQVCSEHTDTVCAPCPPQTYTAHANGLSKCLPCGVCDPDMGLLTWQECSSWKDTVCRCIPGYFCENQDGSHCSTCLQHTTCPPGQRVEKRGTHDQDTVCADCLTGTFSLGGTQEECLPWTNCSAFQQEVRRGTNSTDTTCSSQVVYYVVSILLPLVIVGAGIAGFLICTRRHLHTSSVAKELEPFQEQQENTIRFPVTEVGFAETEEETASN [chain 2 G34D], for which the ratio to parent came out at 0.9.
To chain 2 QPSCRQEEFLVGDECCPMCNPGYHVKQVCSEHTATVCAPCPPQTYTAHANGLSKCLPCGVCDPDMGLLTWQECSSWKDTVCRCIPGYFCENQDGSHCSTCLQHTTCPPGQRVEKRGTHDQDTVCADCLTGTFSLGGTQEECLPWTNCSAFQQEVRRGTNSTDTTCSSQVVYYVVSILLPLVIVGAGIAGFLICTRRHLHTSSVAKELEPFQEQQENTIRFPVTEVGFAETEEETASN [chain 2 G34A] belongs 1.2; to chain 2 QPSCRQEEFLVGDECCPMCNPGYHVKQVCSEHTGTVCAPCPPQTYTAHANGASKCLPCGVCDPDMGLLTWQECSSWKDTVCRCIPGYFCENQDGSHCSTCLQHTTCPPGQRVEKRGTHDQDTVCADCLTGTFSLGGTQEECLPWTNCSAFQQEVRRGTNSTDTTCSSQVVYYVVSILLPLVIVGAGIAGFLICTRRHLHTSSVAKELEPFQEQQENTIRFPVTEVGFAETEEETASN [chain 2 L52A], 0.7; to chain 2 QPSCRQEEFLVGDECCPMCNPGYHVKQVCSEHTGTVCAPCPPQTYTAHANGLSKCLPCGVCDPDMGLLTWQECSSWKDTVCRCIPGYFCENQDGSHCDTCLQHTTCPPGQRVEKRGTHDQDTVCADCLTGTFSLGGTQEECLPWTNCSAFQQEVRRGTNSTDTTCSSQVVYYVVSILLPLVIVGAGIAGFLICTRRHLHTSSVAKELEPFQEQQENTIRFPVTEVGFAETEEETASN [chain 2 S98D], 0.8.
The same measure for chain 2 QPSCRQEEFLVGDECCPACNPGYHVKQVCSEHTGTVCAPCPPQTYTAHANGLSKCLPCGVCDPDMGLLTWQECSSWKDTVCRCIPGYFCENQDGSHCSTCLQHTTCPPGQRVEKRGTHDQDTVCADCLTGTFSLGGTQEECLPWTNCSAFQQEVRRGTNSTDTTCSSQVVYYVVSILLPLVIVGAGIAGFLICTRRHLHTSSVAKELEPFQEQQENTIRFPVTEVGFAETEEETASN [chain 2 M18A]: 1.2; for chain 2 QPSCRQEEFLVGDECCPDCNPGYHVKQVCSEHTGTVCAPCPPQTYTAHANGLSKCLPCGVCDPDMGLLTWQECSSWKDTVCRCIPGYFCENQDGSHCSTCLQHTTCPPGQRVEKRGTHDQDTVCADCLTGTFSLGGTQEECLPWTNCSAFQQEVRRGTNSTDTTCSSQVVYYVVSILLPLVIVGAGIAGFLICTRRHLHTSSVAKELEPFQEQQENTIRFPVTEVGFAETEEETASN [chain 2 M18D]: 0.9.
As to chain 2 QPSCRQEEFLVGDECCPMCNPGYHVDQVCSEHTGTVCAPCPPQTYTAHANGLSKCLPCGVCDPDMGLLTWQECSSWKDTVCRCIPGYFCENQDGSHCSTCLQHTTCPPGQRVEKRGTHDQDTVCADCLTGTFSLGGTQEECLPWTNCSAFQQEVRRGTNSTDTTCSSQVVYYVVSILLPLVIVGAGIAGFLICTRRHLHTSSVAKELEPFQEQQENTIRFPVTEVGFAETEEETASN [chain 2 K26D], the ratio to parent amounted to 1.1.
The same measure for chain 2 QPSCRQEEFLVGDECCPMCNPGYHVKQVCSEHTGTVCAPCPPQTYTAHANGLSKCAPCGVCDPDMGLLTWQECSSWKDTVCRCIPGYFCENQDGSHCSTCLQHTTCPPGQRVEKRGTHDQDTVCADCLTGTFSLGGTQEECLPWTNCSAFQQEVRRGTNSTDTTCSSQVVYYVVSILLPLVIVGAGIAGFLICTRRHLHTSSVAKELEPFQEQQENTIRFPVTEVGFAETEEETASN [chain 2 L56A]: 0.8.
The same measure for chain 2 QPSCRQEEFLVGDECCPMCNPGYHVKQVCSEHTGDVCAPCPPQTYTAHANGLSKCLPCGVCDPDMGLLTWQECSSWKDTVCRCIPGYFCENQDGSHCSTCLQHTTCPPGQRVEKRGTHDQDTVCADCLTGTFSLGGTQEECLPWTNCSAFQQEVRRGTNSTDTTCSSQVVYYVVSILLPLVIVGAGIAGFLICTRRHLHTSSVAKELEPFQEQQENTIRFPVTEVGFAETEEETASN [chain 2 T35D]: 0.3; for chain 2 QPSCRQEEFLVGDECCPMCNPGYHVKQVCSEHTGTACAPCPPQTYTAHANGLSKCLPCGVCDPDMGLLTWQECSSWKDTVCRCIPGYFCENQDGSHCSTCLQHTTCPPGQRVEKRGTHDQDTVCADCLTGTFSLGGTQEECLPWTNCSAFQQEVRRGTNSTDTTCSSQVVYYVVSILLPLVIVGAGIAGFLICTRRHLHTSSVAKELEPFQEQQENTIRFPVTEVGFAETEEETASN [chain 2 V36A]: 1.
The same measure for chain 2 QPSCRQEEFLVGDECCPMCNPGYHVKQVCSEHTGTDCAPCPPQTYTAHANGLSKCLPCGVCDPDMGLLTWQECSSWKDTVCRCIPGYFCENQDGSHCSTCLQHTTCPPGQRVEKRGTHDQDTVCADCLTGTFSLGGTQEECLPWTNCSAFQQEVRRGTNSTDTTCSSQVVYYVVSILLPLVIVGAGIAGFLICTRRHLHTSSVAKELEPFQEQQENTIRFPVTEVGFAETEEETASN [chain 2 V36D]: 0.9; for chain 2 QPSCRQEEFLVGDECCPMCNPGYHVKQVCSEHTGTVCAPCPPQTYTAHANGLSKCLPCGVCDPDMGLLTWQECSSWKDTVCRCIPGYFCENQDGSHCSDCLQHTTCPPGQRVEKRGTHDQDTVCADCLTGTFSLGGTQEECLPWTNCSAFQQEVRRGTNSTDTTCSSQVVYYVVSILLPLVIVGAGIAGFLICTRRHLHTSSVAKELEPFQEQQENTIRFPVTEVGFAETEEETASN [chain 2 T99D]: 0.7.
As to chain 2 QPSCRQEEFLVGDECCPMCNPGYHVKQVCSEHTGTVCAPCPPQTYTAHANGLSKCLPCGVCDPDMGLLTWQECSSWKDTVCRCIPGYFCENQDGSHCSACLQHTTCPPGQRVEKRGTHDQDTVCADCLTGTFSLGGTQEECLPWTNCSAFQQEVRRGTNSTDTTCSSQVVYYVVSILLPLVIVGAGIAGFLICTRRHLHTSSVAKELEPFQEQQENTIRFPVTEVGFAETEEETASN [chain 2 T99A], the ratio to parent worked out at 0.8.
The same measure for chain 2 QPSCDQEEFLVGDECCPMCNPGYHVKQVCSEHTGTVCAPCPPQTYTAHANGLSKCLPCGVCDPDMGLLTWQECSSWKDTVCRCIPGYFCENQDGSHCSTCLQHTTCPPGQRVEKRGTHDQDTVCADCLTGTFSLGGTQEECLPWTNCSAFQQEVRRGTNSTDTTCSSQVVYYVVSILLPLVIVGAGIAGFLICTRRHLHTSSVAKELEPFQEQQENTIRFPVTEVGFAETEEETASN [chain 2 R5D]: 1.1; for chain 2 QPSCRQEAFLVGDECCPMCNPGYHVKQVCSEHTGTVCAPCPPQTYTAHANGLSKCLPCGVCDPDMGLLTWQECSSWKDTVCRCIPGYFCENQDGSHCSTCLQHTTCPPGQRVEKRGTHDQDTVCADCLTGTFSLGGTQEECLPWTNCSAFQQEVRRGTNSTDTTCSSQVVYYVVSILLPLVIVGAGIAGFLICTRRHLHTSSVAKELEPFQEQQENTIRFPVTEVGFAETEEETASN [chain 2 E8A]: 0.9.
To chain 2 QPSCRQERFLVGDECCPMCNPGYHVKQVCSEHTGTVCAPCPPQTYTAHANGLSKCLPCGVCDPDMGLLTWQECSSWKDTVCRCIPGYFCENQDGSHCSTCLQHTTCPPGQRVEKRGTHDQDTVCADCLTGTFSLGGTQEECLPWTNCSAFQQEVRRGTNSTDTTCSSQVVYYVVSILLPLVIVGAGIAGFLICTRRHLHTSSVAKELEPFQEQQENTIRFPVTEVGFAETEEETASN [chain 2 E8R] belongs 1.

Values taken from PMC8558838 (The Journal of Experimental Medicine, 2021).
